Substitutions are numbered along the chain they refer to. Names and notes keep the numbering of the source.
Tests used:
[1] = target: Sgs1-MD (Sgs1 mucin domain repeat peptide) (Drosophila melanogaster)
[2] = target: Sgs3-MD (Sgs3 mucin domain repeat peptide) (Drosophila melanogaster)

B1: PGANT5A^WT (amino acids 77–626) (enzyme)
chain: NEINTEKSLDGESGGALIMGQGFASGGISMTYPSVVLKKWFLAPSVQEAKGKPGEMGKPVKIPADMKDLMKEKFKENQFNLLASDMISLNRSLTDVRHEGCRRKHYASKLPTTSIVIVFHNEAWTTLLRTVWSVINRSPRALLKEIILVDDASERDFLGKQLEEYVAKLPVKTFVLRTEKRSGLIRARLLGAEHVSGEVITFLDAHCECTEGWLEPLLARIVQNRRTVVCPIIDVISDETFEYITASDSTWGGFNWKLNFRWYRVPSREMARRNNDRTAPLRTPTMAGGLFSIDKDYFYEIGSYDEGMDIWGGENLEMSFRIWQCGGILEIIPCSHVGHVFRDKSPYTFPGGVAKIVLHNAARVAEVWLDEWRDFYYSMSTGARKASAGDVSDRKALRDRLKCKSFRWYLENVYPESLMPLDYYYLGEIRNAETETCLDTMGRKYNEKVGISYCHGLGGNQVFAYTKRQQIMSDDLCLDASSSNGPVNMVRCHNMGGNQEWVYDAEEKWIRHTNTGQCLQRATRDDANTPLLRPCSYGKGQQWLMESKFK
[1]
  KM for the acceptor peptide Sgs1-MD, Michaelis-Menten kinetics of O-glycosylation (UDP-Glo assay), fold against PGANT5B^WT: 0.7 fold lower
[2]
  KM for the acceptor peptide Sgs3-MD, Michaelis-Menten kinetics of O-glycosylation (UDP-Glo assay), fold against the corresponding Sgs1-MD parameter: 10 fold lower

B2: PGANT5A^D419K (amino acids 77–626) (enzyme)
chain: B1 chain with D343K
[1]
  KM for the acceptor peptide Sgs1-MD, Michaelis-Menten kinetics of O-glycosylation (UDP-Glo assay), fold against PGANT5A^WT: 0.6 fold higher
[2]
  KM for the acceptor peptide Sgs3-MD, Michaelis-Menten kinetics of O-glycosylation (UDP-Glo assay), fold against the corresponding Sgs1-MD parameter: 10 fold lower

B3: PGANT5B^K419D (amino acids 77–626) (enzyme)
chain: NEINTEKSLDGESGGALIMGQGFASGGISMTYPSVVLKKWFLAPSVQEAKGKPGEMGKPVKIPADMKDLMKEKFKENQFNLLASDMISLNRSLTDVRHEGCRRKHYASKLPTTSIVIVFHNEAWTTLLRTVWSVINRSPRALLKEIILVDDASERDFLGKQLEEYVAKLPVKTFVLRTEKRSGLIRARLLGAEHVSGEVITFLDAHCECTEGWLEPLLARIVQNRRTVVCPIIDVISDETFEYITASDSTWGGFNWKLNFRWYRVPSREMARRNNDRTAPLRTPTMAGGLFSIDKDYFYEIGSYDEGMDIWGGENLEMSFRVWMCGGVLEIAPCSRVGHVFRDSTPYTFPGGTTEIVNHNNARLVEVWLDDWKEFYYSFYPGARKASAGDVSDRKALRDRLKCKSFRWYLENVYPESLMPLDYYYLGEIRNAETETCLDTMGRKYNEKVGISYCHGLGGNQVFAYTKRQQIMSDDLCLDASSSNGPVNMVRCHNMGGNQEWVYDAEEKWIRHTNTGQCLQRATRDDANTPLLRPCSYGKGQQWLMESKFK
[1]
  KM for the acceptor peptide Sgs1-MD, Michaelis-Menten kinetics of O-glycosylation (UDP-Glo assay), fold against PGANT5B^WT (fold decrease): 2
[2]
  KM for the acceptor peptide Sgs3-MD, Michaelis-Menten kinetics of O-glycosylation (UDP-Glo assay), fold against the corresponding Sgs1-MD parameter: 10 fold lower

B4: PGANT5B^WT (amino acids 77–626) (enzyme)
chain: B3 chain with D343K
[2]
  KM for the acceptor peptide Sgs3-MD, Michaelis-Menten kinetics of O-glycosylation (UDP-Glo assay), fold against the corresponding Sgs1-MD parameter: 10 fold lower
